Test results reported in patent US20060142201A1.

Legend:
[1] = molecular target: human noradrenaline transporter (hNET) (human) (UniProt P23975); assay: cell-based or functional assay
[2] = molecular target: human noradrenaline transporter (hNET) (human) (UniProt P23975)

human noradrenaline transporter (hNET) (human), sequence (P23975 whole entry): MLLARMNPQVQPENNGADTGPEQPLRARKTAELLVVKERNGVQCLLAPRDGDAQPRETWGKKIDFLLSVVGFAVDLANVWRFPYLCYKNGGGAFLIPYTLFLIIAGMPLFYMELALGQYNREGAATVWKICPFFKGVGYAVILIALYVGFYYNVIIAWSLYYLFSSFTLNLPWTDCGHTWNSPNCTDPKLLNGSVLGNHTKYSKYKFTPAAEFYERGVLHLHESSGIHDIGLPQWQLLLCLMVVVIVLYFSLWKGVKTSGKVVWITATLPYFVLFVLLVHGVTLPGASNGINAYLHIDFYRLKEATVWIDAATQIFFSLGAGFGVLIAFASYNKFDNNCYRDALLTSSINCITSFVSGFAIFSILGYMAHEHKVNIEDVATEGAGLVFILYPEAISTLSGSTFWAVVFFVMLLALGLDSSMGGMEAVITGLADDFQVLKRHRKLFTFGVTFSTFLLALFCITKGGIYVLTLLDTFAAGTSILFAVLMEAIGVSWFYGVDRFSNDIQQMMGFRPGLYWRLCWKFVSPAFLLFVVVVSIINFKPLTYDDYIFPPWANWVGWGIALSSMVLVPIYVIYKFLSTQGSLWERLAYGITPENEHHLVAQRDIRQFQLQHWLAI

χ-MrIA (SEQ ID NO. 1) (peptide)
Ay log IC50 for inhibition of 3H-NA through hNET [1]: -6.3 log M

χ-MrIA (SEQ ID NO. 1) (peptide; other documents disagree on this pair)
Ay log IC50 for displacement of 3H-nisoxetine from hNET [2]: -5.14 log M
